Results on 47 sequences are retold here after the Immune Epitope Database (IEDB).

pKd: −log10 of the molar value. Bounds are passed on as bounds.

Assay in all cases: IEDB peptide-MHC binding, purified MHC/competitive/radioactivity; filed as Kd, often an IC50 or EC50 that approximates it; ≥ and ≤ were set here for values at or beyond the usual limits of such assays
Assay [1] concerns the target HLA-A*03:01.
Assay [2] has as its target HLA-A*11:01.
The target of assay [3] is HLA-A*31:01.
Assay [4] concerns the target HLA-A*68:01.
Assay [5] has as its target HLA-A*33:01.
Setting [6] is: source organism: SARS coronavirus Tor2.
Setting [7] is: source organism: Dengue virus 3 Martinique/1243/1999.
The mark [8] stands for this setting: source organism: Vaccinia virus WR.
Where [9] appears, read: source organism: Dengue virus 4 Philippines/H241/1956.
[10] abbreviates: source organism: Lymphocytic choriomeningitis virus (strain Armstrong).
Setting [11] is: source organism: Dengue virus 2 Jamaica/1409/1983.
[12] abbreviates: source organism: Dengue virus 1 Brazil/97-11/1997.
[13] abbreviates: source organism: Mammarenavirus machupoense.

A word on the pKd: it is the negative decadic logarithm of the Kd, by convention in mol/L. In the case of RVYANLGER, the negative logarithm of the Kd (pKd) was 7.73 in assay [1] (setting [6]); 6.90 in assay [2] (setting [6]); 8.20 in assay [3] (setting [6]); 6.22 in assay [4] (setting [6]); at most 4.34 in assay [5] (setting [6]).
For AQGLVASIK the same measures were 6.18, 6.68, 5.00, at most 4.49 and at most 4.50.
Take NMLSIINKR: the values for the pKd in assay [3] (setting [7]) and in assay [5] (setting [7]) were 7.38 and 7.64, respectively.
IINFTISMRY: the negative-log Kd (pKd) is 7.45 in assay [1] (setting [8]); 8.77 in assay [2] (setting [8]); 5.85 in assay [3] (setting [8]); 6.16 in assay [4] (setting [8]); 5.28 in assay [5] (setting [8]).
On to KVNSTLEQY, for which the negative-log Kd (pKd) in assay [1] (setting [6]) was 7.23; in assay [2] (setting [6]) it was 6.35; in assay [3] (setting [6]) it was 5.59; in assay [4] (setting [6]) it was 6.02; in assay [5] (setting [6]) it was at most 4.30.
Take KFVFPLNSK: the pKd in assay [1] (setting [6]) was 6.77; in assay [2] (setting [6]) it was 5.90; in assay [3] (setting [6]), 7.13; in assay [4] (setting [6]), 5.06; in assay [5] (setting [6]), at most 4.27.
For the sequence SMDVLAEKKY, the negative logarithm of the Kd (pKd) is at most 4.55 in assay [1] (setting [8]); at most 5.00 in assay [2] (setting [8]); 4.77 in assay [3] (setting [8]); 5.58 in assay [4] (setting [8]); at most 4.53 in assay [5] (setting [8]).
Take RLCTREEFTK: the pKd in assay [1] (setting [7]) is 7.12.
NQVIVNNLDK: the pKd was at most 4.54 in assay [1] (setting [6]); 4.88 in assay [2] (setting [6]); at most 4.39 in assay [3] (setting [6]); 4.87 in assay [4] (setting [6]); at most 4.15 in assay [5] (setting [6]).
For NVTEVKGYTK, the negative-log Kd (pKd) in assay [4] (setting [9]) was 7.39.
Take KVVQHENLK: in assay [1] (source organism: Dengue virus 3 Singapore/8120/1995), the pKd is 7.31.
With KFGKNHIHR, the pKd is 4.91 in assay [1] (setting [8]); at most 4.45 in assay [2] (setting [8]); 8.35 in assay [3] (setting [8]); at most 4.31 in assay [4] (setting [8]); 5.27 in assay [5] (setting [8]).
As to LLRHYYNKR, the pKd in assay [1] (setting [8]) was 5.52; in assay [2] (setting [8]), 6.08; in assay [3] (setting [8]), 8.77; in assay [4] (setting [8]), 5.60; in assay [5] (setting [8]), 7.29.
For DTSNNIAEY the same measures were at most 4.11, at most 5.30, at most 4.45, 8.56 and 5.12.
With KWLKECGVDR, in assay [3] (setting [9]), the pKd is 6.44.
As for KILDAVVAQE, in assay [1] (source organism: Homo sapiens), the pKd was 6.07.
In the case of TFTNDSIISH, the negative logarithm of the Kd (pKd) was at most 4.33 in assay [1] (setting [10]), at most 4.19 in assay [3] (setting [10]), 5.16 in assay [4] (setting [10]) and 5.06 in assay [5] (setting [10]).
Consider VFKEKVDTR, for which the negative logarithm of the Kd (pKd) in assay [5] (setting [7]) is 7.20.
For KLRPKWLDAR, in assay [3] (setting [9]), the negative-log Kd (pKd) is 8.68.
As to FLMSGKGIGK, the negative-log Kd (pKd) is 7.37 in assay [1] (setting [11]) and 7.00 in assay [2] (setting [11]).
As for TAIFLTTLSR, the pKd in assay [2] (setting [11]) was 6.53; in assay [4] (setting [11]) it was 8.55.
Regarding YMTSMKRFK, the negative-log Kd (pKd) in assay [1] (setting [12]) is 6.05.
As for TTETPTWNR, the pKd in assay [4] (setting [7]) was 7.84; in assay [5] (setting [7]), 8.89.
In the case of YMWQVKTQR, the results for the negative-log Kd (pKd) in assay [3] (setting [9]) and in assay [5] (setting [9]) were 8.85 and 8.89, respectively.
Consider EFGKAKGSR, for which the negative logarithm of the Kd (pKd) in assay [5] (setting [7]) was 6.90.
In the case of EFKEFAAGR, the pKd in assay [4] (setting [11]) was 6.23.
As to ALTALNDMGK, the pKd in assay [1] (setting [11]) was 5.89; in assay [2] (setting [11]), 5.86.
Take LIGANYLGK: the pKd in assay [3] (setting [6]) was 5.05; in assay [4] (setting [6]), 4.96; in assay [5] (setting [6]) it was at most 4.11.
In the case of CQFDHVNTLH, the pKd in assay [1] (setting [13]) is 4.74; in assay [2] (setting [13]), 5.06; in assay [3] (setting [13]), 5.71; in assay [4] (setting [13]), 5.03.
In the case of NMLKRVRNR, the pKd in assay [5] (setting [7]) is 6.96.
Turning to AARGYISTR, the negative logarithm of the Kd (pKd) in assay [3] (setting [11]) was 7.95; in assay [5] (setting [11]), 6.50.
Regarding GVTLFFLSGK, the negative logarithm of the Kd (pKd) in assay [1] (setting [12]) is 7.88; in assay [2] (setting [12]), 7.62.
In the case of LLVWHTWQK, in assay [1] (setting [7]), the negative logarithm of the Kd (pKd) is 7.23.
For INMLKRVRNR, the negative logarithm of the Kd (pKd) in assay [3] (setting [7]) is 5.80.
Take MFEATARGAR: the negative-log Kd (pKd) in assay [5] (setting [12]) is 7.65.
As to IMKSVGTGK, the pKd in assay [1] (setting [7]) was 8.31.
EVTNPAVLR: the values for the pKd in assay [4] (setting [12]) and in assay [5] (setting [12]) were 7.40 and 7.04, respectively.
In the case of DVFFIPPEK, in assay [4] (source organism: Dengue virus 2 16681-PDK53), the negative logarithm of the Kd (pKd) is 8.44.
Consider RAGRVIDPR, for which the pKd in assay [3] (setting [9]) is 7.54.
Regarding AIDAYPLTK, the pKd is 7.94 in assay [2] (setting [6]), 5.05 in assay [3] (setting [6]), 5.16 in assay [4] (setting [6]) and at most 4.35 in assay [5] (setting [6]).
On to ITANPIVTDK, for which the values for the pKd in assay [2] (setting [12]) and in assay [4] (setting [12]) were 7.08 and 7.39, respectively.
On to ATRLENIMWK, for which the figures for the pKd in assay [1] (setting [12]) and in assay [2] (setting [12]) were 7.37 and 8.20, respectively.
Consider HMIVGRQEK, for which, in assay [1] (setting [11]), the pKd is 7.18.
On to VTLFFLSGK, for which the pKd in assay [1] (setting [12]) was 8.42; in assay [2] (setting [12]) it was 7.91.
With ATMLDVDLR, in assay [2] (source organism: Dengue virus 1 Singapore/S275/1990), the pKd is 7.38.
Take GMLQGRGPLK: the pKd was 8.21 in assay [1] (setting [11]) and 7.42 in assay [2] (setting [11]).
MVLLIPEPEK: in assay [2] (setting [7]), the pKd was 6.94.
